According to patent US20220204611A1 (Amgen, published 2022):

T1: recombinant soluble human TREM2 protein (human TREM2 ECD-FlagHis) (human, UniProt Q9NZC2 19-174)
T1 sequence: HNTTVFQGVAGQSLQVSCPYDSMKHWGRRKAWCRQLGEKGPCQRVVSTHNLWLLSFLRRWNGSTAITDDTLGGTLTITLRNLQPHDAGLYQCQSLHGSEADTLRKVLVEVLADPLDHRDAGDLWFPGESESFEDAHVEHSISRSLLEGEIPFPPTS

T2: human TREM2 on cells (human, UniProt Q9NZC2 19-230)
T2 sequence: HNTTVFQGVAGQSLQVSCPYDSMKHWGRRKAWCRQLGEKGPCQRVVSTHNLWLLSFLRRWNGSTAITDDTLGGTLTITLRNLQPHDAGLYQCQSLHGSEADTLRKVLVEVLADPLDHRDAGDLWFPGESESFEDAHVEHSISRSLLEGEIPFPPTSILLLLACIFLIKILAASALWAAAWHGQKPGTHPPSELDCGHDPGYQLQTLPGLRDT

T3: soluble human TREM2 protein (TREM2 ECD-huIgG1 Fc fusion protein) (human, UniProt Q9NZC2 19-174, biotinylated)
T3 construct: also called biotinylated soluble human TREM2 protein
T3 sequence: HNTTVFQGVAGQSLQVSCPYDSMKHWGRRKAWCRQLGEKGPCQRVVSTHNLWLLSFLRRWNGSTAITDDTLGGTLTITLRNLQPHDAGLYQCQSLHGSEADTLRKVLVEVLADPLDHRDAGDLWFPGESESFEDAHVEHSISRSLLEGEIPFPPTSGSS


Legend:
[1] = molecular target: T1, recombinant soluble human TREM2 protein …; experiment: Octet BLI binning; competitor: load Ab 33B12
Protocol: (§1) Each of sixteen different anti-TREM2 antibodies produced from hybridomas were quantitated and loaded onto one of the anti-human Fc sensors at 5 μg/mL for 2 minutes (“Load Antibody”). The sensor was then blocked with 100 μg/mL of an irrelevant human IgG2 antibody for 5 minutes. […] Next, each of the sixteen different anti-TREM2 antibodies (“Sandwich Antibody”) was added to the sensor at 5 μg/mL and allowed to bind for 5 minutes. All assay buffers contained 10 mM Tris (pH 7.6), 0.1% Triton X-100, 150 mM NaCl, 1 mM CaCl₂, and 1 mg/mL BSA. The assay was conducted at 25° C. Experimental kinetic results were fit to a 1:1 binding model.
(§2) However, if addition of the sandwich antibody produces a binding event, then the sandwich antibody binds to a different epitope on human TREM2 than the load antibody and the two antibodies are categorized into different epitope bins.

[2] = molecular target: T1, recombinant soluble human TREM2 protein …; experiment: Octet BLI binning; competitor: load Ab 26C10
Protocol: as §1, §2

[3] = molecular target: T1, recombinant soluble human TREM2 protein …; experiment: Octet BLI binning; competitor: load Ab 5E3
Protocol: as §1, §2

[4] = molecular target: T1, recombinant soluble human TREM2 protein …; experiment: Octet BLI binning; competitor: load Ab 24G6
Protocol: as §1, §2

[5] = molecular target: T1, recombinant soluble human TREM2 protein …; experiment: Octet BLI binning; competitor: load Ab 16B8
Protocol: as §1, §2

[6] = molecular target: T1, recombinant soluble human TREM2 protein …; experiment: Octet BLI binning; competitor: load Ab 10E3
Protocol: as §1, §2

[7] = molecular target: T1, recombinant soluble human TREM2 protein …; experiment: Octet BLI binning; competitor: load Ab 24F4
Protocol: as §1, §2

[8] = molecular target: T1, recombinant soluble human TREM2 protein …; experiment: Octet BLI binning; competitor: load Ab 25F12
Protocol: as §1, §2

[9] = molecular target: T1, recombinant soluble human TREM2 protein …; experiment: Octet BLI binning; competitor: load Ab 26A10
Protocol: as §1, §2

[10] = molecular target: T1, recombinant soluble human TREM2 protein …; experiment: Octet BLI binning; competitor: load Ab 6E7
Protocol: as §1, §2

[11] = molecular target: T1, recombinant soluble human TREM2 protein …; experiment: Octet BLI binning; competitor: load Ab 26F2
Protocol: as §1, §2

[12] = molecular target: T1, recombinant soluble human TREM2 protein …; experiment: Octet BLI binning; competitor: load Ab 13E7
Protocol: as §1, §2

[13] = molecular target: T1, recombinant soluble human TREM2 protein …; experiment: Octet BLI binning; competitor: load Ab 24A10
Protocol: as §1, §2

human TREM2 on cells [14] = molecular target: T2, human TREM2 on cells; experiment: cell-based or functional assay
[15] = molecular target: T3, soluble human TREM2 protein (TREM2 …); experiment: ELISA, hybridoma supernatant on captured biotinylated TREM2 ECD-Fc
Protocol: Exhausted hybridoma supernatants were tested for binding to human TREM2 by ELISA. Briefly, neutravidin plates were generated by incubating a 384 well Corning Assay Plate 3702 with neutravidin (Thermo 3100B) at 10 μg/mL (40 μL/well) in 1× PBS at 4° C. overnight. The plates were washed with 1× PBS using a Biotek plate washer and then blocked with 1% milk/1× PBS (90 μL/well) at room temperature (RT) for 30 minutes. The plates were then washed again with 1× PBS using the plate washer. […] The plates were then incubated at RT for 1 hour to immobilize the TREM2 protein to the wells of the plates. Following the incubation, the plates were again washed with 1× PBS using the plate washer. 10 μL of each hybridoma supernatant to be tested and 40 μL of 1% milk/1× PBS (1:5 dilution) were added to each well of the plates and incubated at RT for 1 hour. Again, the plates were washed with 1× PBS using the plate washer. […] After the plates were washed with 1× PBS using the plate washer, 40 μL/well of TMB substrate (Neogen, lot #150114) was added to the plates and the plates were incubated at RT for 30 minutes. The reaction was quenched with 1N hydrochloric acid (40 uL/well) following the incubation period. OD readings at 450 nm were obtained with a plate reader.

[16] = molecular target: T1, recombinant soluble human TREM2 protein …; experiment: Octet BLI binning; competitor: load Ab 32E3
Protocol: as §1, §2

human TREM2 on cells [17] = molecular target: T2, human TREM2 on cells; experiment: cell-based or functional assay; remark: listed apart in the source
[18] = molecular target: T1, recombinant soluble human TREM2 protein …; experiment: Octet BLI binning; competitor: load Ab 4G10
Protocol: as §1, §2

[19] = molecular target: T1, recombinant soluble human TREM2 protein …; experiment: Octet BLI binning; competitor: load Ab 4C5
Protocol: as §1, §2

Binder | sandwich binding signal [1] | sandwich binding signal [2] | sandwich binding signal [3] | sandwich binding signal [4] | sandwich binding signal [5] | sandwich binding signal [6] | sandwich binding signal [7] | sandwich binding signal [8] | sandwich binding signal [9] | sandwich binding signal [10] | sandwich binding signal [11] | sandwich binding signal [12] | sandwich binding signal [13] | pSyk EC50 (human TREM2 on cells [14]) [nM] | OD 450 [15] [OD450] | sandwich binding signal [16] | Emax (% maximum activation compared to RnD antibody) (human TREM2 on cells [17]) [%] | pSyk EC50, differentiated THP-1 cells (human TREM2 on cells [17]) | sandwich binding signal [18] | sandwich binding signal [19]
24A10 (antibody, human IgG2, V domains shown, human IgG2 from hybridoma) VH: EVQVLESGGGLVQPGGSLRLSCAASGFTFSNYAMSWVRQAPGKGLEWVSAISGSGGSTYYADSVKGRFTISRDNSKNTLYLQMNSLRAEDTAVYYCAKGGWELFYWGQGTLVTVSS VL: not shown | 0.439 | 0.605 | 0.53 | -0.031 | 0.481 | 0.347 | 0.585 | 0.509 | 0.596 | 0.616 | 0.544 | 0.375 | 0.023 | 32.9 | 2.75 | 0.461 |  |  |  | 
25F12 (antibody, human IgG2, V domains shown, human IgG2 from hybridoma) VH: QVQLQQWGAGLLKPSETLSLTCAVYGGSFSSYYWSWIRQPPGKGLEWIGEINHSGNTNYNPSLKSRVTISVDTSKNQFSLKLSSVTAADTAVYYCAREGYYDILTGYHDAFDIWDQGTMVTVFS VL: not shown | 0.275 | 0.327 | 0.335 | 0.284 | 0.252 | 0.089 | 0.18 | 0.011 | 0.347 | 0.213 | 0.33 | 0.104 | 0.34 | 2.6 | 1.29 | 0.236 | 122 | 1.05 nM | 0.142 | 0.154
26A10 (antibody, V domains shown, human IgG2 from hybridoma) VH: EVQLVESGGALVQRGGSLRLSCAASRFTFSSFGMSWVRQAPGKGLEWVSYISSSSFTIYYADSVKGRFTISRDNAKNSFYLQMNSLRDEDTAVYYCAREGGLTMVRGVSSYGLDVWGQGTTVTVSS VL: not shown | -0.02 | -0.033 | -0.027 | 0.354 | -0.018 | 0.259 | 0.449 | 0.343 | -0.001 | 0.491 | -0.016 | 0.272 | 0.454 | 1.3 | 1.16 | 0.362 |  |  |  | 
26F2 (antibody, V domains shown, human IgG2 from hybridoma) VH: EVQLVESGGALVQPGGSLRLSCAASGFTFSSFGMSWVRQAPGKGLEWISYISSSSFTIYYADSVKGRFTISRDNAKNSFYLQMNSLRDEDTAVYFCAREGGITMVRGVSSYGMDVWGQGTTVTVSS VL: not shown | -0.009 | -0.003 | -0.014 | 0.399 | -0.003 | 0.275 | 0.477 | 0.366 | 0.009 | 0.523 | -0.008 | 0.294 | 0.49 | 1.4 | 1.48 | 0.411 | 207 | 77.8 pM | 0.334 | 0.368
32E3 (antibody, human IgG2, V domains shown, human IgG2 from hybridoma) VH: EVQLVQSGAEVKKPGESLKISCKGSGYSFTSYWIGWVRQMPGKGLEWMGIIYPGDSDTRYSPSFQGQVTISADKSISTAYLQWSTLKASDTAIYYCARHDIIPAAPGAFDIWGQGTMVTVSS VL: EFVLTQSPGTLSLSPGERATLSCRASQIISSNYLAWYQQKPGQAPRLLIYSASSRATGIPDRFSGSGSGTDFTLTISRLEPEDFAVYYCQQFDSSPITFGRGTRLDIK | 0.132 | 0.141 | 0.176 | 0.126 | 0.12 | -0.023 | -0.021 | 0.154 | 0.157 | -0.024 | 0.143 | -0.027 | 0.162 | 1.2 | 1.41 | -0.01 | 197 | 1.25 nM | -0.02 | -0.016
